# Test results taken from IntAct's records for PubMed 19207211.
# B1: Oxysterol-binding protein-related protein 3A (Arabidopsis thaliana (Mouse-ear cress)), Q9LZM1 (parent)
# chain: MASNDPKNGGGFFASLASSITNFGSAMSKSVNGLMGYEGLEVINPEGSTDDAEEEAGRGRWKQEERDGYWKMMQKYIGSDVTSMVTLPVIIFEPMTMLQKMAELMEYSYLLDMADKTEDPYMRMVYASSWAISVYYAYQRTWKPFNPILGETYEMTNHNGINFIAEQVCHHPPMSAGHAENEHFAYDCTSKLKTKFLGNSIDVYPVGRTRVTLKRDGVVLDLVPPLTKVHNLIFGRTWVDSPGEMVMTNLTTGDKVVLYFQPCGWFGSGRYEVDGYVYNSAEEPKMLMTGKWNESLSYQPCDAEGEPLPGTELKEVWKVAEAPKNDKYQYTHFAHKINSFDTAPKKLLSSDSRLRPDRYALEMGDMSKSGFEKSSLEDRQRAEKKSREEKGQKFAPKWFDETEEVTPTPWGDLEVYQFNGKYSVHRATAENSEDTTDVKLTQFNPWQFQDLSA
# partner: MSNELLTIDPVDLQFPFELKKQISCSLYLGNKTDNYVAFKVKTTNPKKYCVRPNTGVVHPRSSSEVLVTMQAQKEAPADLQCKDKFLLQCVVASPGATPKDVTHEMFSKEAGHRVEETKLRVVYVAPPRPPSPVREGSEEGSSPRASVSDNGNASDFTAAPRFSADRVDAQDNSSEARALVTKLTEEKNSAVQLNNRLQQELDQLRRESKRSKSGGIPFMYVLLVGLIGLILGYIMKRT
# Variants of: B1
# Settings: with vap12_arath PVA12, Q9SHC8
row,effect of a mutation on the interaction,Variant
1,disrupting interaction,W398A;F399A;D400G;E401G;E403G
